The first test addresses Anti-CD28 Fab (SEQ ID NOs: 202, 203). In words: phage binding ELISA on captured Fab.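 Also: clonal phage supernatants added briefly to wells pre-incubated with CD28 antigen or with blocking buffer only, then washed, bound phage read by ELISA using HRP-coupled anti-M13 antibody.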
Target sequence in this assay (VH, as listed by the source, chain 1 of 2): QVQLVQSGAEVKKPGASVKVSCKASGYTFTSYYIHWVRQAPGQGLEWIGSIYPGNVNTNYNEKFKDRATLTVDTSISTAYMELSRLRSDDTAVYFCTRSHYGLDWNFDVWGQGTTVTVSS
Target sequence in this assay (VL, as listed by the source, chain 2 of 2): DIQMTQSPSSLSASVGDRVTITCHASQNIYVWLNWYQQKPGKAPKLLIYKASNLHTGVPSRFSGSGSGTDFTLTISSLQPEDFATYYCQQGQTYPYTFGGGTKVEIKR
Description: Clonal phage were harvested as crude supernatants and screened via standard ELISAs. […] Prior to the addition of clonal phage, wells were incubated with blocking buffer and CD28 antigen or blocking buffer alone. Without washing or aspirating, clonal phage supernatants were then added to the wells and incubated for a short time. Wells were then washed followed by detection of bound phage using a horse radish conjugated anti-M13 antibody.
For YCEGHSSEYMLKCL [Phage-103], the “Anti-CD28 Fab signal” value worked out at 2.3.

WCWDYKLWVPMTCP [Phage-11]: the “Anti-CD28 Fab signal” value is 2.51.

With WICDKSGSIMLCRA [Phage-17], the “Anti-CD28 Fab signal” value was 0.91.

In the case of YCEGHSWANLGKCL [Phage-85], the “Anti-CD28 Fab signal” value turned out to be 2.32.

Regarding YCDGHAKEYMWKCL [Phage-102], the “Anti-CD28 Fab signal” value worked out at 2.3.

In the case of YCAGHMPQYEVKCL [Phage-21], the “Anti-CD28 Fab signal” value amounted to 0.22.

Take ECHWSMWAVGHACF [Phage-9]: the “Anti-CD28 Fab signal” value was determined as 1.77.

As to YCDGHAPQYMRKCL [Phage-101], the “Anti-CD28 Fab signal” value is 2.3.

As for YCAGHSPINIGKCL [Phage-10], the “Anti-CD28 Fab signal” value was 1.49.

Regarding DCPWLSGFSRPLLC [Phage-19], the “Anti-CD28 Fab signal” value came out at 1.27.

Take YCAGHSHEYLAKCE [Phage-24]: the “Anti-CD28 Fab signal” value stood at 0.86.

Regarding PDCQTILFKPWCVR [Phage-4], the “Anti-CD28 Fab signal” value stood at 2.09.

As for PDCHTILFKPWCVR [Phage-16], the “Anti-CD28 Fab signal” value came out at 1.

Regarding DCWWMFESYPGRCI [Phage-12], the “Anti-CD28 Fab signal” value is 1.65.

As for SCAAGASYAWPYCL [Phage-18], the “Anti-CD28 Fab signal” value was determined as 1.49.

In the case of YCDGHSMEYMSKCL [Phage-139], the “Anti-CD28 Fab signal” value is 2.22.

For the molecule YCDGHSREYIAKCL [Phage-106], the “Anti-CD28 Fab signal” value came out at 2.29.

Take YCEGHSPEYMAKCL [Phage-74]: the “Anti-CD28 Fab signal” value is 2.35.

As to YCAGHLPEYMEKCL [Phage-128], the “Anti-CD28 Fab signal” value was determined as 2.24.

With YCEGHSPEYMYKCL [Phage-138], the “Anti-CD28 Fab signal” value was found to be 2.23.

As to YCDGHSSEYMAKCL [Phage-113], the “Anti-CD28 Fab signal” value came to 2.28.

For YCEGHLPEYMLKCL [Phage-87], the “Anti-CD28 Fab signal” value was found to be 2.32.

Take YCDGHLPMYMMKCL [Phage-109]: the “Anti-CD28 Fab signal” value came to 2.28.

With YCEGHLPQYMAKCL [Phage-81], the “Anti-CD28 Fab signal” value turned out to be 2.34.

For YCDGHSQEYMMKCL [Phage-111], the “Anti-CD28 Fab signal” value is 2.28.

For the molecule YCDGHSPLYMWKCL [Phage-82], the “Anti-CD28 Fab signal” value stood at 2.34.

YCDGHLPQYMAKCL [Phage-76]: the “Anti-CD28 Fab signal” value turned out to be 2.35.

On to YCSGHLPQYMQKCL [Phage-112], for which the “Anti-CD28 Fab signal” value amounted to 2.28.

Consider YCDGHSQEYMAKCL [Phage-131], for which the “Anti-CD28 Fab signal” value is 2.24.

Regarding YCDGHLPIYMSKCL [Phage-84], the “Anti-CD28 Fab signal” value came out at 2.32.

For YCDGHLPMYMQKCL [Phage-83], the “Anti-CD28 Fab signal” value came out at 2.33.

Take YCDGHLPQYMNKCL [Phage-134]: the “Anti-CD28 Fab signal” value is 2.23.

Take YCDGHLPEYMMKCL [Phage-78]: the “Anti-CD28 Fab signal” value came to 2.34.

Consider YCEGHAWEYMAKCL [Phage-129], for which the “Anti-CD28 Fab signal” value amounted to 2.24.

Take YCDGHLPQYMWKCL [Phage-107]: the “Anti-CD28 Fab signal” value was 2.29.

Consider YCDGHLPEYMSKCL [Phage-75], for which the “Anti-CD28 Fab signal” value was 2.35.

Consider YCEGHAAEYMEKCL [Phage-104], for which the “Anti-CD28 Fab signal” value was found to be 2.3.

YCDGHSAEYMAKCL [Phage-137]: the “Anti-CD28 Fab signal” value amounted to 2.23.

YCQGHLPEYMNKCL [Phage-130]: the “Anti-CD28 Fab signal” value was determined as 2.24.

With YCQGHAPEYMAKCL [Phage-110], the “Anti-CD28 Fab signal” value came out at 2.28.

Regarding YCDGHLPLYLAKCL [Phage-133], the “Anti-CD28 Fab signal” value was 2.23.

On to YCDGHVPEYMAKCL [Phage-108], for which the “Anti-CD28 Fab signal” value came to 2.29.

Take WCWDYKLWVPTQCP [Phage-7]: the “Anti-CD28 Fab signal” value amounted to 2.27.

In the case of YCEGHLPEYMQKCM [Phage-136], the “Anti-CD28 Fab signal” value turned out to be 2.23.

As to YCMGHSHEHIWKCL [Phage-23], the “Anti-CD28 Fab signal” value was 0.87.

Consider ACDTYFAGMINECF [Phage-5], for which the “Anti-CD28 Fab signal” value turned out to be 0.92.

On to GCQYPWAFDAMSCP [Phage-6], for which the “Anti-CD28 Fab signal” value was found to be 2.38.

For YWYCSPSIVRCVLV [Phage-15], the “Anti-CD28 Fab signal” value was 1.51.

Consider WCWDYREWVPMTCP [Phage-8], for which the “Anti-CD28 Fab signal” value turned out to be 2.3.

In the case of WCWYYREWVPMTCP [Phage-14], the “Anti-CD28 Fab signal” value was determined as 1.85.

YCQGHLPMYMEKCL [Phage-80]: the “Anti-CD28 Fab signal” value is 2.34.

As for YCEGHLPMYMDKCL [Phage-140], the “Anti-CD28 Fab signal” value stood at 2.22.

As to YCQGHLPIYMEKCL [Phage-132], the “Anti-CD28 Fab signal” value stood at 2.24.

Take YCQGHLPMYMAKCL [Phage-77]: the “Anti-CD28 Fab signal” value is 2.34.

In the case of YCDGHLPEYREKCF [Phage-86], the “Anti-CD28 Fab signal” value worked out at 2.32.

For YCEGHSAQYMSKCL [Phage-105], the “Anti-CD28 Fab signal” value was determined as 2.29.

Regarding YCAGMSTIQLWLKC [Phage-20], the “Anti-CD28 Fab signal” value came to 2.16.

Turning to WECLKYTEANACTY [Phage-2], the “Anti-CD28 Fab signal” value is 1.55.

In the case of YCDGHSPMYILKCL [Phage-79], the “Anti-CD28 Fab signal” value was 2.34.

For YCAGHTEEHYVKCM [Phage-22], the “Anti-CD28 Fab signal” value was 0.62.

FMCLPQNPHPLCFK [Phage-3]: the “Anti-CD28 Fab signal” value stood at 0.84.

In a further test the target is T1, Anti-CD28 Fab (SEQ ID NOs: 202, 203).
T1 construct: biotinylated and captured on neutravidin coated plates in the phage ELISA
The test is described as follows: phage binding ELISA, Fab on plate.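 Also: clonal phage supernatant ELISA, wells preincubated with CD28 antigen or blocking buffer only, then bound phage detected using HRP-linked anti-M13 antibody.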
T1 sequence (VH, as listed by the source, chain 1 of 2): as the sequence (VH, as listed by the source, chain 1 of 2) above
T1 sequence (VL, as listed by the source, chain 2 of 2): as the sequence (VL, as listed by the source, chain 2 of 2) above
As for WCAAVFSYTWSPCL [Phage-981], the “Anti-CD28 Fab (SEQ ID NOs: 202, 203) signal” value stood at 1.96.

As for TCAAGAAYTWPACF [Phage-982], the “Anti-CD28 Fab (SEQ ID NOs: 202, 203) signal” value is 1.96.

Consider TCAAGATYEWPYCF [Phage-980], for which the “Anti-CD28 Fab (SEQ ID NOs: 202, 203) signal” value was 1.96.

These data come from patent US20260274955A1 (JANUX THERAPEUTICS, published 2026).
